Results reported in patent publication US9132174 (ANCHORED RSK3 INHIBITORS, dated 2015).

Legend:
[1] = biological target: T1, His-tagged mAKAP 1286-1833 (bacterially expressed) (UniProt Q9WVC7 1286-1833); assay: SPR; unphosphorylated RSK3
T1 chain: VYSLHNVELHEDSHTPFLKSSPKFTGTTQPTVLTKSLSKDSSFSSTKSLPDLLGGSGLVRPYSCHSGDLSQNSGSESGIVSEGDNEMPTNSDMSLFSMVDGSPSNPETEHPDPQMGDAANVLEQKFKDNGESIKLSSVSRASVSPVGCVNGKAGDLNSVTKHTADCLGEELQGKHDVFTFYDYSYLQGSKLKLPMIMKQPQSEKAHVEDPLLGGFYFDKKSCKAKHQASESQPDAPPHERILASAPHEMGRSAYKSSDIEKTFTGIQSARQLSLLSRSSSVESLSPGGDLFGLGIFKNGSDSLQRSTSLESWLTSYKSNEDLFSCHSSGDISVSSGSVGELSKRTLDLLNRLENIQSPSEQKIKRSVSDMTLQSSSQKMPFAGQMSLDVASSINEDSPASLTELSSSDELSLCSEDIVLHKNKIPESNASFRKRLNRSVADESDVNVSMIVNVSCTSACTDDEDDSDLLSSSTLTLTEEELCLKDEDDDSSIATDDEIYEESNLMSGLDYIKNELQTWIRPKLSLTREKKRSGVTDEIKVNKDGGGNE

[2] = biological target: T1, His-tagged mAKAP 1286-1833 (bacterially …); assay: SPR; ERK-phosphorylated RSK3
[3] = biological target: T2, His-tagged mAKAP 1286-1833 (bacterially expressed) (UniProt Q9WVC7 1286-1833); assay: SPR (BIAcore T100), His-mAKAP 1286-1833 immobilised, phospho-His-RSK3 as analyte
T2 construct: Covalently immobilised by amine coupling on a CM5 chip, 200 resonance units; not shown: His tag (pET30 parent vector)
T2 sequence (looked up): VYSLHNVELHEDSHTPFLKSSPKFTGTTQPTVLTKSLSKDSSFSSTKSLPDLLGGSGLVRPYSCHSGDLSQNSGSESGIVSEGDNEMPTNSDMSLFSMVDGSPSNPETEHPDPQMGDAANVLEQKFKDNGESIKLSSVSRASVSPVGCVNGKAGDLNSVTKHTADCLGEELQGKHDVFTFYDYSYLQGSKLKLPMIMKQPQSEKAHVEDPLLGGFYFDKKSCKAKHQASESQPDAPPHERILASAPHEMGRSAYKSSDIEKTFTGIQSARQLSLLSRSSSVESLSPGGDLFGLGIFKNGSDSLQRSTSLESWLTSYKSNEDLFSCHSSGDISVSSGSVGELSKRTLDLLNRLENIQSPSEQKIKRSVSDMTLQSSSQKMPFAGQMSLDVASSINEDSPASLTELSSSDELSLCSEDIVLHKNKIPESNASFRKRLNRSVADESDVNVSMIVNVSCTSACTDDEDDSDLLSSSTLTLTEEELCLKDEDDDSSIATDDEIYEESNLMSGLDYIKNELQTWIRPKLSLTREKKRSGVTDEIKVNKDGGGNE
Source text: Figure 7: FIG. 7. The p90 ribosomal S6 kinase type 3 (RSK3) binding site within muscle A-kinase anchoring protein (mAKAP). A, mAKAP domain structure. […] All fragments are numbered per mAKAPα. The grey bar indicates the RSK3 binding site. B-F, Specific tag antibodies were used to immunoprecipitate myc-tagged mAKAPβ and HA-tagged p90 ribosomal S6 kinase (RSK) proteins (see FIG. 4A) co-expressed in either HEK293 (B) or COS-7 (C-F) cells (n=3) for all panels. G, Surface plasmon resonance using purified bacterially expressed proteins. […] Each curve was repeated 3 times using different protein preparations.
Surface Plasmon Resonance: SPR analysis was performed using a BIAcore T100. […] (Biacore amine coupling kit) to the surface of a sensor chip (BIAcore type CM5). His-RSK3 analytes (6.25-200 nmol/L) in HBS buffer (10 mmol/L Hepes, pH 7.4, 150 mmol/L NaCl, and 0.005% Surfactant P20) were injected at a flow rate of 30 μL/min for 5 minutes, followed by buffer alone for another 5 minutes. Sensorgrams were processed by BIAcore T100 evaluation software.

[4] = biological target: T1, His-tagged mAKAP 1286-1833 (bacterially …); assay: SPR; ERK- and PDK1-phosphorylated RSK3

Row | Binder | Kd [1] [nM] | Kd [2] [nM] | fold decrease in binding affinity against unphosphorylated RSK3 [3] [fold] | Kd [4] [nM]
1 | His-tagged full-length RSK3, unphosphorylated (bacterially expressed) (enzyme) MDLSMKKFAVRRFFSVYLRRKSRSKSSSLSRLEEEGVVKEIDISHHVKEGFEKADPSQFELLKVLGQGSYGKVFLVRKVKGSDAGQLYAMKVLKKATLKVRDRVRSKMERDILAEVNHPFIVKLHYAFQTEGKLYLILDFLRGGDLFTRLSKEVMFTEEDVKFYLAELALALDHLHSLGIIYRDLKPENILLDEEGHIKITDFGLSKEAIDHDKRAYSFCGTIEYMAPEVVNRRGHTQSADWWSFGVLMFEMLTGSLPFQGKDRKETMALILKAKLGMPQFLSGEAQSLLRALFKRNPCNRLGAGIDGVEEIKRHPFFVTIDWNTLYRKEIKPPFKPAVGRPEDTFHFDPEFTARTPTDSPGVPPSANAHHLFRGFSFVASSLIQEPSQQDLHKVPVHPIVQQLHGNNIHFTDGYEIKEDIGVGSYSVCKRCVHKATDTEYAVKIIDKSKRDPSEEIEILLRYGQHPNIITLKDVYDDGKFVYLVMELMRGGELLDRILRQRYFSEREASDVLCTITKTMDYLHSQGVVHRDLKPSNILYRDESGSPESIRVCDFGFAKQLRAGNGLLMTPCYTANFVAPEVLKRQGYDAACDIWSLGILLYTMLAGFTPFANGPDDTPEEILARIGSGKYALSGGNWDSISDAAKDVVSKMLHVDPHQRLTAMQVLKHPWVVNREYLSPNQLSRQDVHLVKGAMAATYFALNRTPQAPRLEPVLSSNLAQRRGMKRLTSTRL | 1.6 |  |  | 
2 | ERK-phosphorylated His-RSK3 (enzyme, phosphorylated in vitro with ERK2; sites of this preparation not given, also called Phospho-His-RSK3 (ERK2); not shown: His tag) MDLSMKKFAVRRFFSVYLRRKSRSKSSSLSRLEEEGVVKEIDISHHVKEGFEKADPSQFELLKVLGQGSYGKVFLVRKVKGSDAGQLYAMKVLKKATLKVRDRVRSKMERDILAEVNHPFIVKLHYAFQTEGKLYLILDFLRGGDLFTRLSKEVMFTEEDVKFYLAELALALDHLHSLGIIYRDLKPENILLDEEGHIKITDFGLSKEAIDHDKRAYSFCGTIEYMAPEVVNRRGHTQSADWWSFGVLMFEMLTGSLPFQGKDRKETMALILKAKLGMPQFLSGEAQSLLRALFKRNPCNRLGAGIDGVEEIKRHPFFVTIDWNTLYRKEIKPPFKPAVGRPEDTFHFDPEFTARTPTDSPGVPPSANAHHLFRGFSFVASSLIQEPSQQDLHKVPVHPIVQQLHGNNIHFTDGYEIKEDIGVGSYSVCKRCVHKATDTEYAVKIIDKSKRDPSEEIEILLRYGQHPNIITLKDVYDDGKFVYLVMELMRGGELLDRILRQRYFSEREASDVLCTITKTMDYLHSQGVVHRDLKPSNILYRDESGSPESIRVCDFGFAKQLRAGNGLLMTPCYTANFVAPEVLKRQGYDAACDIWSLGILLYTMLAGFTPFANGPDDTPEEILARIGSGKYALSGGNWDSISDAAKDVVSKMLHVDPHQRLTAMQVLKHPWVVNREYLSPNQLSRQDVHLVKGAMAATYFALNRTPQAPRLEPVLSSNLAQRRGMKRLTSTRL |  | 7.3 | 5 | 
3 | ERK and PDK1-phosphorylated His-RSK3 (enzyme, phosphorylated in vitro with ERK2 and PDK1; sites of this preparation not given, also called Phospho-His-RSK3 (ERK2 and PDK1); not shown: His tag) MDLSMKKFAVRRFFSVYLRRKSRSKSSSLSRLEEEGVVKEIDISHHVKEGFEKADPSQFELLKVLGQGSYGKVFLVRKVKGSDAGQLYAMKVLKKATLKVRDRVRSKMERDILAEVNHPFIVKLHYAFQTEGKLYLILDFLRGGDLFTRLSKEVMFTEEDVKFYLAELALALDHLHSLGIIYRDLKPENILLDEEGHIKITDFGLSKEAIDHDKRAYSFCGTIEYMAPEVVNRRGHTQSADWWSFGVLMFEMLTGSLPFQGKDRKETMALILKAKLGMPQFLSGEAQSLLRALFKRNPCNRLGAGIDGVEEIKRHPFFVTIDWNTLYRKEIKPPFKPAVGRPEDTFHFDPEFTARTPTDSPGVPPSANAHHLFRGFSFVASSLIQEPSQQDLHKVPVHPIVQQLHGNNIHFTDGYEIKEDIGVGSYSVCKRCVHKATDTEYAVKIIDKSKRDPSEEIEILLRYGQHPNIITLKDVYDDGKFVYLVMELMRGGELLDRILRQRYFSEREASDVLCTITKTMDYLHSQGVVHRDLKPSNILYRDESGSPESIRVCDFGFAKQLRAGNGLLMTPCYTANFVAPEVLKRQGYDAACDIWSLGILLYTMLAGFTPFANGPDDTPEEILARIGSGKYALSGGNWDSISDAAKDVVSKMLHVDPHQRLTAMQVLKHPWVVNREYLSPNQLSRQDVHLVKGAMAATYFALNRTPQAPRLEPVLSSNLAQRRGMKRLTSTRL |  |  | 8 | 12.7
